This is an account of results in PMC5231405 (eLife, 2016).

One assay concerns the target CheY (Escherichia coli) (UniProt P0AE67). To be noted: cited from earlier work.
The target of assay [1] is T1, DesKCSTAB:DesR-REC complex (phosphatase complex) (Bacillus subtilis, UniProt O34757, S150I/S153L/R157I).
T1 construct: gene desK; DesK cytoplasmic portion with DesR receiver domain; His-tag and TEV site on each, co-expressed in E. coli BL21(DE3); 2:2 complex; with Transcriptional regulatory protein DesR
Description: X-ray crystallography. To be noted: Mg2+, BeF3-; pH 8.5; CA (ATP-binding) domain; 2.79 A.

The target in assay [2] is T2, DesKC_(H188E), free protein used in ITC (B. subtilis, UniProt O34757 154-370, H188E).
T2 construct: DesK, histidine kinase of Bacillus subtilis; cytoplasmic portion (DesKC); Kept apart from m2 because it stood alone in the calorimeter cell, whereas m2 was co-expressed and purified with DesR-REC; It may be the same polypeptide as m2
T2 sequence: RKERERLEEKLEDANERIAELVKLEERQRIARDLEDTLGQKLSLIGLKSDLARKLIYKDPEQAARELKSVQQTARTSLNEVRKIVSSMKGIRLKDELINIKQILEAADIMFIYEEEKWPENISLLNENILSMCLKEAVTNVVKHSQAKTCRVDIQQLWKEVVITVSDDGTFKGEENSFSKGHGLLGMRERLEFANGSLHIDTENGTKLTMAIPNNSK
Description: ITC; VP-ITC; DesR-REC (350-400 µM) injected into the cell with DesKC variants (25-30 µM); 15°C; 20 mM Tris.HCl pH 8, 0.3 M NaCl, 10 mM MgCl2, 0.5 mM AMP-PNP; duplicate; fitted to a two independent sequential site model. To be noted: both partners purified. A general note: In ITC the heat of successive injections is recorded.

Assay [3] addresses T3, DesKC_(H188V), mutant of the cytoplasmic portion of DesK trapped in the phosphatase state (B. subtilis, UniProt O34757 154-370, H188V).
T3 construct: DesK, histidine kinase of Bacillus subtilis; cytoplasmic portion (DesKC); also called DesK_(H188V)
T3 sequence: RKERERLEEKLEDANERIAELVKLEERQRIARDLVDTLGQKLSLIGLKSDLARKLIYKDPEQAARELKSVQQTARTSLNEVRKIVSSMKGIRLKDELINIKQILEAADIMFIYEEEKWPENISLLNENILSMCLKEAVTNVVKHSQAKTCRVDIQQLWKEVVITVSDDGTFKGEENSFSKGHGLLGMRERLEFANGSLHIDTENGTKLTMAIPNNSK
The description is as above. The following applies: both partners purified.

Assay [4] addresses T2, DesKC_(H188E), free protein used in ITC. The description is as above. Also on record: unit not given here. To be noted: both partners purified.
Assay [5] has as its target T3, DesKC_(H188V), mutant of the …. The description is as above. More on the design: unit not given here. To be noted: both partners purified.
Assay [6] concerns the target DesKC_(STAB), phosphatase-constitutive mutant of the cytoplasmic portion of the histidine kinase DesK (B. subtilis). The assay can be described thus: SEC-SAXS; purified DesK-DesR complexes at 10 mg/mL in 50 mM Tris.HCl pH 8.0, 300 mM NaCl, Superdex 75 5/150 GL, beamline SWING; theoretical curves of crystal models fitted with CRYSOL, mixtures with OLIGOMER
A general note: In gel filtration, larger molecules generally elute earlier.

Sequence of CheY (Escherichia coli) (P0AE67 2-129): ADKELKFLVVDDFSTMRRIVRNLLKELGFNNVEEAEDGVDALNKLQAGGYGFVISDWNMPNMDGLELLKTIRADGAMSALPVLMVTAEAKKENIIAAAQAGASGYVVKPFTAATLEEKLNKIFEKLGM
T1 sequence (O34757 150-370 S150I/S153L/R157I, one chain of several): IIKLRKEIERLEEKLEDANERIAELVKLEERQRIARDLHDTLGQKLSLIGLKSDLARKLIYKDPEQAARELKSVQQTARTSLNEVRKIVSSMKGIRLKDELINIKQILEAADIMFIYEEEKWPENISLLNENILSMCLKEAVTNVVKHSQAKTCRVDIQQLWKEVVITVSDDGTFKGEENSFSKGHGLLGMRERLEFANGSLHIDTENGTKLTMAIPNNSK

For orientation: Kd means the equilibrium constant for the complex coming apart. For the molecule CheA (from UniProt P07363), the Kd in the assay with CheY (Escherichia coli) was 30 nM.
On to `Nc1ncnc2c1ncn2[C@@H]1O[C@H](COP(=O)(O)OP(=O)(O)CP(=O)(O)O)[C@@H](O)[C@H]1O` [AMP-PCP], for which, in assay [1], the X-ray crystallography result is listed as “one AMP-PCP (ATP analogue) moiety is bound to each CA domain”.

B1: DesR-REC, free protein used as ligand in ITC (domain or fragment, B. subtilis)
chain: MISIFIAEDQQMLLGALGSLLNLEDDMEVVGKGTTGQDAVDFVKKRQPDVCIMDIEMPGKTGLEAAEELKDTGCKIIILTTFARPGYFQRAIKAGVKGYLLKDSPSEELANAIRSVMNGKRIYAPELMEDLYSEA
notes: DesR, response regulator of Bacillus subtilis, REC domain; Probably from pQE80-DesR-REC in E. coli TOP10F', the plasmid and host that the methods name for functional assays (Trajtenberg et al., 2014)
The stoichiometry N is a count of units in the complex or per binding partner. As to B1, the “stoichiometry N” value in assay [2] came out at 1 RR monomers per HK dimer; in assay [3], 2 RR monomers per HK dimer. The “dH, first printed row (two sequential sites fit)” value in assay [4] stood at 22000; in assay [5] it was 15000. Besides, the “dH, second printed row (two sequential sites fit)” value in assay [4] came to 21000; in assay [5], 14000. The stoichiometry N (RR monomers per HK dimer) in assay [6] was determined as 2.
